± gives the standard error. Fewer inactive variants are shown than the library holds. Where only a bound is given, the exact number is not on record here.

Here are results for 32 variants from the supplement of paper PMC7125110.

B1: glmS ribozyme (parent)
chain: AUAAAAGCGCCAGAACUACAGAAAUGUAGUUGACGAGGAGGAGGUUUAUCGAAUUUUCGGCGGAUGCCUCCAAA

Holding throughout (settings): with glucosamine-6-phosphate
Variants of B1 are the subject of data set [1]. Put plainly: self-cleavage kobs at 640 uM GlcN6P; higher = faster cleavage; RNA array. An outline of the steps: (§1)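 Glucosamine-6-phosphate (40 μM to 10 mM) in HEPES/KCl/Mg(OAc)2 buffer was flowed over sequenced MiSeq chips, and tiles were imaged over ~14 h. Barcoded ribozyme variants there had been transcribed in situ by E. coli RNA polymerase and were tracked through a hybridised Cy3 probe at 37 °C. One- or two-exponential decay fits to per-tile medians, normalised to baseline and to non-cleaving reference variants, gave kobs. kcat and KM came from weighted Michaelis–Menten fits across concentrations.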

In data set [2] the parent is B1. Put plainly: self-cleavage kobs at 2500 uM GlcN6P; higher = faster cleavage; RNA array. Summed up:
as §1

The variants in data set [3] derive from B1. Put plainly: self-cleavage kobs at 10000 uM GlcN6P; higher = faster cleavage; RNA array. Summed up: as §1

Consider C16U A39G G40A A42G G43A U45G, for which the “self-cleavage kobs at 640 uM GlcN6P” value with glucosamine-6-phosphate [1] was 0.00638 ± 0.0016 s⁻¹. The “self-cleavage kobs at 2500 uM GlcN6P” value with glucosamine-6-phosphate [2] stood at 0.0072 ± 0.0024 s⁻¹.
As to G7A U31G C67U, the “self-cleavage kobs at 640 uM GlcN6P” value in the data set with glucosamine-6-phosphate [1] is less than 1e-05 s⁻¹.
For the variant G38U U56G C70A, the “self-cleavage kobs at 640 uM GlcN6P” value with glucosamine-6-phosphate [1] came out at 0.000333 ± 0.00015 s⁻¹.
Consider C10G G44C, for which the “self-cleavage kobs at 640 uM GlcN6P” value with glucosamine-6-phosphate [1] was less than 1e-05 s⁻¹. Moreover, the “self-cleavage kobs at 2500 uM GlcN6P” value in the data set with glucosamine-6-phosphate [2] is less than 1e-05 s⁻¹.
Regarding A6G C16A A52C, the “self-cleavage kobs at 640 uM GlcN6P” value in the data set with glucosamine-6-phosphate [1] is less than 1e-05 s⁻¹. Further, the “self-cleavage kobs at 2500 uM GlcN6P” value in the data set with glucosamine-6-phosphate [2] is less than 1e-05 s⁻¹.
Turning to A6G G41C A42C, the “self-cleavage kobs at 640 uM GlcN6P” value with glucosamine-6-phosphate [1] is less than 1e-05 s⁻¹. Further, in the data set with glucosamine-6-phosphate [2], the “self-cleavage kobs at 2500 uM GlcN6P” value was less than 1e-05 s⁻¹.
Turning to A6C U31G G40U G43A C50G G60C, the “self-cleavage kobs at 640 uM GlcN6P” value in the data set with glucosamine-6-phosphate [1] was less than 1e-05 s⁻¹. In the data set with glucosamine-6-phosphate [3], the “self-cleavage kobs at 10000 uM GlcN6P” value was less than 1e-05 s⁻¹.
As to G29A G32A U57C U69C, in the data set with glucosamine-6-phosphate [1], the “self-cleavage kobs at 640 uM GlcN6P” value came to 9.71e-05 ± 3.8e-05 s⁻¹.
Consider C8A G9C G29C G35U, for which, in the data set with glucosamine-6-phosphate [1], the “self-cleavage kobs at 640 uM GlcN6P” value was less than 1e-05 s⁻¹. Moreover, the “self-cleavage kobs at 2500 uM GlcN6P” value in the data set with glucosamine-6-phosphate [2] was less than 1e-05 s⁻¹.
As for C34U A53U C70G, in the data set with glucosamine-6-phosphate [1], the “self-cleavage kobs at 640 uM GlcN6P” value was 0.000145 ± 4.1e-05 s⁻¹.
For the variant A6C C16G G37C A39G U45G U47A, the “self-cleavage kobs at 640 uM GlcN6P” value with glucosamine-6-phosphate [1] was less than 1e-05 s⁻¹. For the same variant, the “self-cleavage kobs at 2500 uM GlcN6P” value with glucosamine-6-phosphate [2] was less than 1e-05 s⁻¹.
Regarding A14G A33U G44U U47C G63U, in the data set with glucosamine-6-phosphate [1], the “self-cleavage kobs at 640 uM GlcN6P” value was less than 1e-05 s⁻¹. Also, the “self-cleavage kobs at 2500 uM GlcN6P” value with glucosamine-6-phosphate [2] is less than 1e-05 s⁻¹. Also, in the data set with glucosamine-6-phosphate [3], the “self-cleavage kobs at 10000 uM GlcN6P” value is less than 1e-05 s⁻¹.
Take A14C C58G C67U: the “self-cleavage kobs at 640 uM GlcN6P” value with glucosamine-6-phosphate [1] was 5.66e-05 ± 2.2e-05 s⁻¹. In the data set with glucosamine-6-phosphate [2], the “self-cleavage kobs at 2500 uM GlcN6P” value came to 5.98e-05 ± 1.9e-05 s⁻¹.
In the case of G41U U47G C50G, the “self-cleavage kobs at 640 uM GlcN6P” value with glucosamine-6-phosphate [1] is less than 1e-05 s⁻¹.
In the case of C11U A15U C70G, the “self-cleavage kobs at 640 uM GlcN6P” value with glucosamine-6-phosphate [1] worked out at 0.000134 ± 4.8e-05 s⁻¹.
Same read-out and setting: under A42U C70A C71G stands less than 1e-05 s⁻¹; under U17C G44U U47C, less than 1e-05 s⁻¹; under U30A G38A C50A G66U, less than 1e-05 s⁻¹.
Take G9C A12G G29A: in the data set with glucosamine-6-phosphate [1], the “self-cleavage kobs at 640 uM GlcN6P” value is less than 1e-05 s⁻¹.
Turning to A6C C11U G51C C67G C68A, in the data set with glucosamine-6-phosphate [1], the “self-cleavage kobs at 640 uM GlcN6P” value amounted to 0.000105 ± 2.8e-05 s⁻¹. Moreover, in the data set with glucosamine-6-phosphate [2], the “self-cleavage kobs at 2500 uM GlcN6P” value came out at 0.00015 ± 3.5e-05 s⁻¹.
For A36U A39U U45C C58U, in the data set with glucosamine-6-phosphate [1], the “self-cleavage kobs at 640 uM GlcN6P” value was less than 1e-05 s⁻¹. Besides, in the data set with glucosamine-6-phosphate [2], the “self-cleavage kobs at 2500 uM GlcN6P” value is less than 1e-05 s⁻¹.
Regarding U46G U55G U69G, in the data set with glucosamine-6-phosphate [1], the “self-cleavage kobs at 640 uM GlcN6P” value came out at 0.000454 ± 0.00015 s⁻¹. Besides, the “self-cleavage kobs at 2500 uM GlcN6P” value in the data set with glucosamine-6-phosphate [2] was found to be 6.16e-05 ± 1.8e-05 s⁻¹.
Turning to C11G U47G C50A C70G, the “self-cleavage kobs at 640 uM GlcN6P” value with glucosamine-6-phosphate [1] was determined as 0.000245 ± 6.2e-05 s⁻¹. The “self-cleavage kobs at 2500 uM GlcN6P” value in the data set with glucosamine-6-phosphate [2] was 0.000139 ± 4e-05 s⁻¹. Moreover, the “self-cleavage kobs at 10000 uM GlcN6P” value in the data set with glucosamine-6-phosphate [3] is 7.52e-05 ± 1.9e-05 s⁻¹.
Consider A14G G43U G63U C70A, for which the “self-cleavage kobs at 640 uM GlcN6P” value with glucosamine-6-phosphate [1] is less than 1e-05 s⁻¹. In addition, the “self-cleavage kobs at 2500 uM GlcN6P” value in the data set with glucosamine-6-phosphate [2] is less than 1e-05 s⁻¹.
For the variant U55G U56A C71G, in the data set with glucosamine-6-phosphate [1], the “self-cleavage kobs at 640 uM GlcN6P” value came to 8.05e-05 ± 1.8e-05 s⁻¹.
For U46G C50U A53C A64U, in the data set with glucosamine-6-phosphate [1], the “self-cleavage kobs at 640 uM GlcN6P” value was less than 1e-05 s⁻¹. In addition, the “self-cleavage kobs at 2500 uM GlcN6P” value in the data set with glucosamine-6-phosphate [2] was less than 1e-05 s⁻¹.
Take A14G A52U C67U: in the data set with glucosamine-6-phosphate [1], the “self-cleavage kobs at 640 uM GlcN6P” value is 7.45e-05 ± 1.3e-05 s⁻¹. Besides, the “self-cleavage kobs at 2500 uM GlcN6P” value in the data set with glucosamine-6-phosphate [2] was determined as 0.00014 ± 3.1e-05 s⁻¹.
In the case of G9A G37A U56G, in the data set with glucosamine-6-phosphate [1], the “self-cleavage kobs at 640 uM GlcN6P” value is less than 1e-05 s⁻¹.
For U30A A33G U57C, in the data set with glucosamine-6-phosphate [1], the “self-cleavage kobs at 640 uM GlcN6P” value was less than 1e-05 s⁻¹.
On to A12G A33C C50A C68G, for which, in the data set with glucosamine-6-phosphate [1], the “self-cleavage kobs at 640 uM GlcN6P” value came to 0.000144 ± 6.5e-05 s⁻¹. Also, the “self-cleavage kobs at 2500 uM GlcN6P” value with glucosamine-6-phosphate [2] is 0.00016 ± 6.5e-05 s⁻¹.
Consider G9C A64U G66C C70U C71U, for which, in the data set with glucosamine-6-phosphate [1], the “self-cleavage kobs at 640 uM GlcN6P” value is less than 1e-05 s⁻¹.
For the variant G40C U54C U56A, the “self-cleavage kobs at 640 uM GlcN6P” value with glucosamine-6-phosphate [1] turned out to be 0.000313 ± 5.9e-05 s⁻¹. In addition, the “self-cleavage kobs at 2500 uM GlcN6P” value with glucosamine-6-phosphate [2] was determined as 0.000505 ± 0.00011 s⁻¹.
